Data: patent publication US20160331662A1, “Compositions that Inhibit and Prevent the Formation of Dental Caries and Methods of Using the Same” (priority 2014, published 2016)

What was measured:
[1] = molecular target: iSRCR1 (Deglycosylated) (human) (UniProt Q9UGM3); assay: SPR, analyte over ligand deglycosylated on the CM5 chip, 1:1 Langmuir model
[2] = molecular target: iSRCR123 (Deglycosylated) (human) (UniProt Q9UGM3); assay: as above
iSRCR123 (human) = iSRCR123 (human) (UniProt Q9UGM3); assay: SPR, analyte over ligand immobilized on CM5 chip, 1:1 Langmuir model
[3] = molecular target: salivary agglutinin (SAG) (human) (UniProt Q9UGM3); assay: SPR, analyte over SAG immobilized on CM5 chip, 1:1 Langmuir model
salivary agglutinin (SAG) (human), sequence (Q9UGM3 whole entry): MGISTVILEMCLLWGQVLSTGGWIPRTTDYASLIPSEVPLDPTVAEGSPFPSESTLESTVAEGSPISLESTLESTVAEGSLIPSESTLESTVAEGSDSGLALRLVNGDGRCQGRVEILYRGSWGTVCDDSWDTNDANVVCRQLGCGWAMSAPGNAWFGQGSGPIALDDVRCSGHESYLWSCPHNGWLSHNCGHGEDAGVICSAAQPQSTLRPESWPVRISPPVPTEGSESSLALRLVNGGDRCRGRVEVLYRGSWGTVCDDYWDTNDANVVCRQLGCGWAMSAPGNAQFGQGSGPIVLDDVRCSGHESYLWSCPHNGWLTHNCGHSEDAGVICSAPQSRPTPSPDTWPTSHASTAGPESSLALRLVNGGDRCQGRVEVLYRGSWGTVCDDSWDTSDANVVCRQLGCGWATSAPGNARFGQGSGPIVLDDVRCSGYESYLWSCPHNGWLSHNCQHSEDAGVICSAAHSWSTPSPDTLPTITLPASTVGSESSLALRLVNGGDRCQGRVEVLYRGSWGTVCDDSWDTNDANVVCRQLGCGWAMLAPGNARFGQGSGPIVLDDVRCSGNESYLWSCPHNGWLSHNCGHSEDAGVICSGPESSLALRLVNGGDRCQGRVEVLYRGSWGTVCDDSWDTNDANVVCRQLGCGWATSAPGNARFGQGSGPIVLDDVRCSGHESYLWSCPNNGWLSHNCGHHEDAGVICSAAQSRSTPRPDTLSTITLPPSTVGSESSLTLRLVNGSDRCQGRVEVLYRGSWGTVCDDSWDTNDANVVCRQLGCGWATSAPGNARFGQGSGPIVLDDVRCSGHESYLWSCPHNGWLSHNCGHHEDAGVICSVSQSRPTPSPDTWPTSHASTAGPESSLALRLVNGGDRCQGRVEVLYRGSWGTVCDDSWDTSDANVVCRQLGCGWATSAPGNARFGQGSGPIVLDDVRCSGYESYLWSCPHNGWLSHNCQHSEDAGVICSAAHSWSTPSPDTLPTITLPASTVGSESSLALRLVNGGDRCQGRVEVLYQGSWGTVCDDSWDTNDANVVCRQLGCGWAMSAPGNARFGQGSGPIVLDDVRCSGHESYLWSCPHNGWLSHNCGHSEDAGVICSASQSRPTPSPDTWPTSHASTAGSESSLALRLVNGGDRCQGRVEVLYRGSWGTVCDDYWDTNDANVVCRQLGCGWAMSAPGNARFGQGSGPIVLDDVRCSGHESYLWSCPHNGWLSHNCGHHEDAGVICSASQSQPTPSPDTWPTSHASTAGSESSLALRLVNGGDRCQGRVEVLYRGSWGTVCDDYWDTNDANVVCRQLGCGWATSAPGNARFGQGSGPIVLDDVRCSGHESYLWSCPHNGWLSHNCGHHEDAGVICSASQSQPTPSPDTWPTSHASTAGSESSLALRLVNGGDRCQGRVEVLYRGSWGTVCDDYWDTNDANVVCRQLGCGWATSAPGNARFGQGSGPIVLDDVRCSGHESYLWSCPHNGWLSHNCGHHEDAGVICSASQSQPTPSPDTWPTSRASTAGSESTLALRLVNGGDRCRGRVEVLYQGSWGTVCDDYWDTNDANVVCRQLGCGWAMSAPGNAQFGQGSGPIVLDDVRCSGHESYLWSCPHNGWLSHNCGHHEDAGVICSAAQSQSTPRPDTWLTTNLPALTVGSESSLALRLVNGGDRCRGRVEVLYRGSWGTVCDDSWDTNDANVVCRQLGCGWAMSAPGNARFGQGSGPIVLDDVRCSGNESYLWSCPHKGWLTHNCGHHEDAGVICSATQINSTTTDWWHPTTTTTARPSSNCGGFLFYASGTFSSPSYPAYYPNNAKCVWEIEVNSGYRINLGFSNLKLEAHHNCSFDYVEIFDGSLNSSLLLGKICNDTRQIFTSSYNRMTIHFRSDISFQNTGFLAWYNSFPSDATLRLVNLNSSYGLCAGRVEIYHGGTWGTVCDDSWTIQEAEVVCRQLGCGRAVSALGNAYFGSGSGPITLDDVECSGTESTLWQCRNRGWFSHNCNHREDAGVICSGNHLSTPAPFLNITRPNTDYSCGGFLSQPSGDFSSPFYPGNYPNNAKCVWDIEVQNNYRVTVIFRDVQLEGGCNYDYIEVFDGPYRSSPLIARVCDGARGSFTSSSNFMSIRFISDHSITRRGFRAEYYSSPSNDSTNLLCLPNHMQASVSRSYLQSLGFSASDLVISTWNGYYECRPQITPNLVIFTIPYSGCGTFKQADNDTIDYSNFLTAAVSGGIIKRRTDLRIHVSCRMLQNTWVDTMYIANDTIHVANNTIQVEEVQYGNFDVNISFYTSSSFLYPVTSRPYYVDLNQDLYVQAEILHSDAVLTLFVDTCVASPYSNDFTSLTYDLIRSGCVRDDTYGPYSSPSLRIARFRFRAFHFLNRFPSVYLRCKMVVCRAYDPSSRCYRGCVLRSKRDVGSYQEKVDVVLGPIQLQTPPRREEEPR

iSRCR123 (Deglycosylated) (human), sequence (Q9UGM3 102-463 limits assumed): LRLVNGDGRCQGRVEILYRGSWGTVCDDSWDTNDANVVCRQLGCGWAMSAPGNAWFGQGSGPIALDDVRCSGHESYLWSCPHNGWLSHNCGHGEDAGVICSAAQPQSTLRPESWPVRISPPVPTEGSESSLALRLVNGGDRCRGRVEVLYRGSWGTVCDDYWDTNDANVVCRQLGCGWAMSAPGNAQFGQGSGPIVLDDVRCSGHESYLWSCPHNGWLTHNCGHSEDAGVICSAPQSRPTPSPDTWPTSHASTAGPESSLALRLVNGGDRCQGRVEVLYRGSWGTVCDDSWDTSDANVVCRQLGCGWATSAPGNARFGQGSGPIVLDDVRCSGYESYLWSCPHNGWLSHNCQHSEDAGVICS
iSRCR1 (Deglycosylated) (human), sequence (Q9UGM3 102-202): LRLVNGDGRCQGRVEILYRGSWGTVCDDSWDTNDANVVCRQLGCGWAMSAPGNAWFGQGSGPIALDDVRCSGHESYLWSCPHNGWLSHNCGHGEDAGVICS
iSRCR123 (human), sequence (Q9UGM3 102-463 limits assumed): as the sequence (Q9UGM3 102-463 limits assumed) above

Substance | Kd [1] | Ka [2] | Kd [2] | Ka (iSRCR123 (human)) | Kd (iSRCR123 (human)) | Ka [3] | Kd [3] | Ka [1]
A3VP1^SspB (S. gordonii DL1 SspB, residues 386-805) (from UniProt P16952 386-805) | 338 nM | 1.38e+06 M⁻¹ | 727 nM | 5.53e+07 M⁻¹ | 18.1 nM | 3.19e+07 M⁻¹ | 31.4 nM | 
C123^SspB (S. gordonii DL1 SspB, residues 913-1406) (from UniProt P16952 913-1406) | 1090 nM |  | 6220 nM |  |  | 1.07e+07 M⁻¹ | 93.4 nM | 921000 M⁻¹
